# Patent US10093706
# Read-outs that look alike come from different tables or passages of the source.
# Columns and labels:
# [1] = target: hnRNP-E1 (PCBP1) wild-type (Homo sapiens) (UniProt Q15365); settings: Scatchard
# [2] = target: hnRNP-E1(C293S) (Homo sapiens) (UniProt Q15365); settings: no L-homocysteine; Scatchard
# [3] = target: hnRNP-E1(G292A) G292A (Homo sapiens) (UniProt Q15365); settings: no L-homocysteine; Scatchard
# Chain of hnRNP-E1(G292A) G292A (Homo sapiens) (Q15365 whole entry A205V/G292A): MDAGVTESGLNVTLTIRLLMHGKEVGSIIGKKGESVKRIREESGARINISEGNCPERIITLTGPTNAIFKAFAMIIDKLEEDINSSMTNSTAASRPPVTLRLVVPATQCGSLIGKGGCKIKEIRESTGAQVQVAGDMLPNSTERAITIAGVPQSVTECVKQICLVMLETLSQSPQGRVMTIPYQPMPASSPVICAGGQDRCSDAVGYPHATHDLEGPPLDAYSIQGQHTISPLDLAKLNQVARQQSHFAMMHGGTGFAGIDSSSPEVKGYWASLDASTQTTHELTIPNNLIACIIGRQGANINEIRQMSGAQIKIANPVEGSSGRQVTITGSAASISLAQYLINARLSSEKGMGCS
# Chain of hnRNP-E1 (PCBP1) wild-type (Homo sapiens) (Q15365 whole entry A205V): as the sequence (Q15365 whole entry A205V/G292A) above, with A292G counted along it
# Chain of hnRNP-E1(C293S) (Homo sapiens) (Q15365 whole entry A205V/C293S): as the sequence (Q15365 whole entry A205V/G292A) above, with A292G, C293S counted along it
substance,measurement,setting,value
18-nt folate receptor-alpha mRNA cis-element,Kd,[1]; 10 uM L-homocysteine,0.89 nM
same,Kd,[1]; 50 uM L-homocysteine,0.47 nM
same,Kd,[1]; no L-homocysteine,1.47 nM
same,Kd,[2],0.27 nM
same,Kd,[3],1.57 nM
